# pKd: −log10 of the molar value.
# Experiments:
# [1] = biological target: Tle1^Vc (Vibrio cholerae E1); experiment: ITC
# [2] = biological target: Tle1^Vc (Vibrio cholerae E1); experiment: SPR
Substance,pKd [1],pKd [2]
Tli1^tox- (natural protein),9.46,–
VgrG1^E1 (natural protein),–,5.69

# Reference: article PMC10395195
